31 molecules from PMC6555819, “Comprehensive study of nuclear receptor DNA binding provides a revised framework for understanding receptor specificity” can be followed below.

First the molecules themselves.
B1: NRC3_wobSeed106_DR4_T28A_o1 (dsDNA)
DNA 1: GCCTCGAAAGGTCGGTTGAGGTGAGTAAACGGATAAGCGATTGACAGCGTAGAATGAAGG
DNA 2: CCTTCATTCTACGCTGTCAATCGCTTATCCGTTTACTCACCTCAACCGACCTTTCGAGGC
B2: NRC3_wobSeed98_DR4_C13A_o1 (dsDNA)
DNA 1: GCACTAGTTGGTAAGCTGAGGTCACACACAATTCGGGCGATTGACAGCGTAGAATGAAGG
DNA 2: CCTTCATTCTACGCTGTCAATCGCCCGAATTGTGTGTGACCTCAGCTTACCAACTAGTGC
B3: NRC3_wobSeed75_DR3_C6A_o1 (dsDNA)
DNA 1: GCTCTAGGAGGACACGAAGGTCAGAGCTTTCCAGAGGCGATTGACAGCGTAGAATGAAGG
DNA 2: CCTTCATTCTACGCTGTCAATCGCCTCTGGAAAGCTCTGACCTTCGTGTCCTCCTAGAGC
B4: NRC3_wobSeed123_DR5_C4G_o1 (dsDNA)
DNA 1: GCCGTCGGAGGACAACAGGAGGTCAGAGCTGCCAGAGCGATTGACAGCGTAGAATGAAGG
DNA 2: CCTTCATTCTACGCTGTCAATCGCTCTGGCAGCTCTGACCTCCTGTTGTCCTCCGACGGC
B5: NRC3_wobSeed123_DR5_A15C_o1 (dsDNA)
DNA 1: GCCCTCGGAGGACACCAGGAGGTCAGAGCTGCCAGAGCGATTGACAGCGTAGAATGAAGG
DNA 2: CCTTCATTCTACGCTGTCAATCGCTCTGGCAGCTCTGACCTCCTGGTGTCCTCCGAGGGC
B6: NRC3_wobSeed65_DR2_T8A_o1 (dsDNA)
DNA 1: GCATATGAAGGTTATCGGGTCATTCAGTTTGCGCATGCGATTGACAGCGTAGAATGAAGG
DNA 2: CCTTCATTCTACGCTGTCAATCGCATGCGCAAACTGAATGACCCGATAACCTTCATATGC
B7: NRC3_wobSeed111_DR4_G25T_o1 (dsDNA)
DNA 1: GCCGAACTAGGTCAGAACAGGACATTGAAGGATGATGCGATTGACAGCGTAGAATGAAGG
DNA 2: CCTTCATTCTACGCTGTCAATCGCATCATCCTTCAATGTCCTGTTCTGACCTAGTTCGGC
B8: NRC3_wobSeed61_DR2_T12G_o1 (dsDNA)
DNA 1: GCCGTCCAAGGGCAGCAGGTCAGTGAAAGCGACGTGGCGATTGACAGCGTAGAATGAAGG
DNA 2: CCTTCATTCTACGCTGTCAATCGCCACGTCGCTTTCACTGACCTGCTGCCCTTGGACGGC
B9: NRC3_wobSeed21_DR0_G17T_o1 (dsDNA)
DNA 1: GCCGTCAAAGTTCAAGTTAACGTAACAGAAAGCAGCGCGATTGACAGCGTAGAATGAAGG
DNA 2: CCTTCATTCTACGCTGTCAATCGCGCTGCTTTCTGTTACGTTAACTTGAACTTTGACGGC
B10: NRC3_wobSeed21_DR0_A19T_o1 (dsDNA)
DNA 1: GCCGTCAAAGTTCAAGGTTACGTAACAGAAAGCAGCGCGATTGACAGCGTAGAATGAAGG
DNA 2: CCTTCATTCTACGCTGTCAATCGCGCTGCTTTCTGTTACGTAACCTTGAACTTTGACGGC
B11: NRC3_wobSeed141_DR5_G15C_o1 (dsDNA)
DNA 1: GCAGTCAAAGTTCACGACGAGGTAACGTAAAGCACGGCGATTGACAGCGTAGAATGAAGG
DNA 2: CCTTCATTCTACGCTGTCAATCGCCGTGCTTTACGTTACCTCGTCGTGAACTTTGACTGC
B12: NRC3_wobSeed5_DR0_G9C_o1 (dsDNA)
DNA 1: GCCCTTACCGGTCAAGGTTATAGCACGGGTGGTACGGCGATTGACAGCGTAGAATGAAGG
DNA 2: CCTTCATTCTACGCTGTCAATCGCCGTACCACCCGTGCTATAACCTTGACCGGTAAGGGC
B13: NRC3_wobSeed46_DR1_A5T_o1 (dsDNA)
DNA 1: GCTTTCCAAGGTGAAAGGTCGTTGATGCACGCCTTGGCGATTGACAGCGTAGAATGAAGG
DNA 2: CCTTCATTCTACGCTGTCAATCGCCAAGGCGTGCATCAACGACCTTTCACCTTGGAAAGC
B14: NRC3_wobSeed46_DR1_C7G_o1 (dsDNA)
DNA 1: GCTTACGAAGGTGAAAGGTCGTTGATGCACGCCTTGGCGATTGACAGCGTAGAATGAAGG
DNA 2: CCTTCATTCTACGCTGTCAATCGCCAAGGCGTGCATCAACGACCTTTCACCTTCGTAAGC
B15: NRC3_wobSeed4_DR0_A24C_o1 (dsDNA)
DNA 1: GCCCTACTGGGCCAAGGTCATTGCTCAGTCAAAGCAGCGATTGACAGCGTAGAATGAAGG
DNA 2: CCTTCATTCTACGCTGTCAATCGCTGCTTTGACTGAGCAATGACCTTGGCCCAGTAGGGC
B16: NRC3_wobSeed120_DR4_A17G_o1 (dsDNA)
DNA 1: GCCCGAGTAGGTTACGGGGGGGCATTCAGTGCGAATGCGATTGACAGCGTAGAATGAAGG
DNA 2: CCTTCATTCTACGCTGTCAATCGCATTCGCACTGAATGCCCCCCCGTAACCTACTCGGGC
B17: NRC3_wobSeed51_DR2_T5C_o1 (dsDNA)
DNA 1: GCCCCCGGAGGACAGAAGGTCAGAGCTGTCCGCTTTGCGATTGACAGCGTAGAATGAAGG
DNA 2: CCTTCATTCTACGCTGTCAATCGCAAAGCGGACAGCTCTGACCTTCTGTCCTCCGGGGGC
B18: NRC3_wobSeed51_DR2_G25T_o1 (dsDNA)
DNA 1: GCCCTCGGAGGACAGAAGGTCAGATCTGTCCGCTTTGCGATTGACAGCGTAGAATGAAGG
DNA 2: CCTTCATTCTACGCTGTCAATCGCAAAGCGGACAGATCTGACCTTCTGTCCTCCGAGGGC
B19: NRC3_wobSeed51_DR2_C4G_o1 (dsDNA)
DNA 1: GCCGTCGGAGGACAGAAGGTCAGAGCTGTCCGCTTTGCGATTGACAGCGTAGAATGAAGG
DNA 2: CCTTCATTCTACGCTGTCAATCGCAAAGCGGACAGCTCTGACCTTCTGTCCTCCGACGGC
B20: NRC3_wobSeed62_DR2_T20G_o1 (dsDNA)
DNA 1: GCTCTGCTAGGTCAGTTGGGCAGCTAACGAGCTGCCGCGATTGACAGCGTAGAATGAAGG
DNA 2: CCTTCATTCTACGCTGTCAATCGCGGCAGCTCGTTAGCTGCCCAACTGACCTAGCAGAGC
B21: NRC3_wobSeed86_DR3_T17A_o1 (dsDNA)
DNA 1: GCGCTGCTAGGTCAGGATGGTCAGCTAACGGGTACGGCGATTGACAGCGTAGAATGAAGG
DNA 2: CCTTCATTCTACGCTGTCAATCGCCGTACCCGTTAGCTGACCATCCTGACCTAGCAGCGC
B22: NRC3_wobSeed86_DR3_G24A_o1 (dsDNA)
DNA 1: GCGCTGCTAGGTCAGGTTGGTCAACTAACGGGTACGGCGATTGACAGCGTAGAATGAAGG
DNA 2: CCTTCATTCTACGCTGTCAATCGCCGTACCCGTTAGTTGACCAACCTGACCTAGCAGCGC
B23: NRC3_wobSeed86_DR3_A23T_o1 (dsDNA)
DNA 1: GCGCTGCTAGGTCAGGTTGGTCTGCTAACGGGTACGGCGATTGACAGCGTAGAATGAAGG
DNA 2: CCTTCATTCTACGCTGTCAATCGCCGTACCCGTTAGCAGACCAACCTGACCTAGCAGCGC
B24: NRC3_wobSeed12_DR0_T8G_o1 (dsDNA)
DNA 1: GCCCGACGGGGGCAAGGTTACCATAACGCACAGCCAGCGATTGACAGCGTAGAATGAAGG
DNA 2: CCTTCATTCTACGCTGTCAATCGCTGGCTGTGCGTTATGGTAACCTTGCCCCCGTCGGGC
B25: NRC3_wobSeed115_DR4_A23C_o1 (dsDNA)
DNA 1: GCACAGACAGGTGAGTGAAGGTCACTCAGCTGGACGGCGATTGACAGCGTAGAATGAAGG
DNA 2: CCTTCATTCTACGCTGTCAATCGCCGTCCAGCTGAGTGACCTTCACTCACCTGTCTGTGC
B26: NRC3_wobSeed89_DR3_G18A_o1 (dsDNA)
DNA 1: GCCTATGTAGGTTAAGGAGGTCATTCAGTTTGAAAGGCGATTGACAGCGTAGAATGAAGG
DNA 2: CCTTCATTCTACGCTGTCAATCGCCTTTCAAACTGAATGACCTCCTTAACCTACATAGGC
B27: NRC3_wobSeed9_DR0_G21T_o1 (dsDNA)
DNA 1: GCATCTCTAGGTAAAGTTCATTGAAAGATCGATAGAGCGATTGACAGCGTAGAATGAAGG
DNA 2: CCTTCATTCTACGCTGTCAATCGCTCTATCGATCTTTCAATGAACTTTACCTAGAGATGC
B28: NRC3_wobSeed9_DR0_T22C_o1 (dsDNA)
DNA 1: GCATCTCTAGGTAAAGTTCAGCGAAAGATCGATAGAGCGATTGACAGCGTAGAATGAAGG
DNA 2: CCTTCATTCTACGCTGTCAATCGCTCTATCGATCTTTCGCTGAACTTTACCTAGAGATGC
B29: NRC3_wobSeed112_DR4_C22G_o1 (dsDNA)
DNA 1: GCTAGCCTAGGTCAGATCGGGGCAGTATACGCTATAGCGATTGACAGCGTAGAATGAAGG
DNA 2: CCTTCATTCTACGCTGTCAATCGCTATAGCGTATACTGCCCCGATCTGACCTAGGCTAGC
B30: NRC3_wobSeed112_DR4_A27C_o1 (dsDNA)
DNA 1: GCTAGCCTAGGTCAGATCGGGCCAGTCTACGCTATAGCGATTGACAGCGTAGAATGAAGG
DNA 2: CCTTCATTCTACGCTGTCAATCGCTATAGCGTAGACTGGCCCGATCTGACCTAGGCTAGC
B31: NRC3_wobSeed112_DR4_C23G_o1 (dsDNA)
DNA 1: GCTAGCCTAGGTCAGATCGGGCGAGTATACGCTATAGCGATTGACAGCGTAGAATGAAGG
DNA 2: CCTTCATTCTACGCTGTCAATCGCTATAGCGTATACTCGCCCGATCTGACCTAGGCTAGC

RARb:RXRa, sequence (P10826 whole entry, chain 1 of 2): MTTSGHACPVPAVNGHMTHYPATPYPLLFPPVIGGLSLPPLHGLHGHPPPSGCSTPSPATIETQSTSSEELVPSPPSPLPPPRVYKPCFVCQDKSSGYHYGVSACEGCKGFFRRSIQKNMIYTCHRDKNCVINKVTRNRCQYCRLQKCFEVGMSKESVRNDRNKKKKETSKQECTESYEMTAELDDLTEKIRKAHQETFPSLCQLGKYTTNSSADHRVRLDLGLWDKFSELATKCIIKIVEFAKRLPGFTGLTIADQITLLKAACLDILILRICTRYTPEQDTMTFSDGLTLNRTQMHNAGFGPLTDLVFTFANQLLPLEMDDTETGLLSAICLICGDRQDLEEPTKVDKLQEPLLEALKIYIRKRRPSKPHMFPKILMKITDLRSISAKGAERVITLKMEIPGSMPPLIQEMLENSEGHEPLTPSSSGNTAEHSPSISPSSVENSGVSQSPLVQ
RARb:RXRa, sequence (P19793 whole entry, chain 2 of 2): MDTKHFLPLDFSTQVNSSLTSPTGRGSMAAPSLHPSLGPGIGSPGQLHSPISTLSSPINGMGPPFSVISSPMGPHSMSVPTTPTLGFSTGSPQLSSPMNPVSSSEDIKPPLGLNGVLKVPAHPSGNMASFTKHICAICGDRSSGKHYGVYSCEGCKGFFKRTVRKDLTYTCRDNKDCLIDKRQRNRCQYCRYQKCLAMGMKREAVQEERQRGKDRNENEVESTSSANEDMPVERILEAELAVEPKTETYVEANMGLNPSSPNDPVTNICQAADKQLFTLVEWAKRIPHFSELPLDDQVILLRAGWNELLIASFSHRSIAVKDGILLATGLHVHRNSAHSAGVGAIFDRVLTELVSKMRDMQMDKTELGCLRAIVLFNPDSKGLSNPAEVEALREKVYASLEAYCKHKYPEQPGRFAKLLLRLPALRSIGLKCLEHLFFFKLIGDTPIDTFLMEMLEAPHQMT

The target of this series is RARb:RXRa (Homo sapiens, UniProt P10826;P19793 full;full). In words: no ligand; PBM; 270 nM : 90 nM RXRa; PBS pH 7.4, 2% milk, 0.02% Triton X-100, 1 mM DTT, BSA, 0.4 mg/ml salmon testes DNA. The conditions noted are these: tags: His kept;His cleaved; copies: 1;1; label: surface-attached array probe. An outline of the steps:
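Binding z-scores were set against random background probes. The data came from custom Agilent 4×180K protein-binding microarrays carrying double-stranded probes with 34-nt variable regions, incubated 1 h with ligand-free nuclear receptor dimers. Partner-specific antibodies detected binding, and scanned fluorescence was regression-normalized.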
B1: the binding signal is 3.1 PBM z-score against 500 random probes.
Then B2, with 3.06 PBM z-score against 500 random probes; and B3, with 3.07 PBM z-score against 500 random probes.
B4: the binding signal was 3.11 PBM z-score against 500 random probes.
Then B5, with 3.1 PBM z-score against 500 random probes; and B6, with 3.08 PBM z-score against 500 random probes.
The value for B7 was 3.08 PBM z-score against 500 random probes.
Then B8, with 3.09 PBM z-score against 500 random probes; and B9, with 5.46 PBM z-score against 500 random probes.
B10: the binding signal is 5.43 PBM z-score against 500 random probes.
In the case of B11, the binding signal is 5.43 PBM z-score against 500 random probes.
The value for B12 was 3.08 PBM z-score against 500 random probes; that for B13 was 3.06 PBM z-score against 500 random probes.
For B14, the binding signal is 3.05 PBM z-score against 500 random probes.
Then B15, with 3.07 PBM z-score against 500 random probes; and B16, with 3.09 PBM z-score against 500 random probes; and B17, with 3.13 PBM z-score against 500 random probes.
B18: the binding signal is 3.07 PBM z-score against 500 random probes.
Then B19, with 3.1 PBM z-score against 500 random probes; and B20, with 3.09 PBM z-score against 500 random probes.
With B21, the binding signal was 3.06 PBM z-score against 500 random probes.
The value for B22 was 3.06 PBM z-score against 500 random probes; that for B23 was 3.05 PBM z-score against 500 random probes; that for B24 was 3.13 PBM z-score against 500 random probes.
Then B25, with 3.12 PBM z-score against 500 random probes; and B26, with 3.12 PBM z-score against 500 random probes.
On to B27, for which the binding signal was 3.11 PBM z-score against 500 random probes.
Then B28, with 3.07 PBM z-score against 500 random probes; and B29, with 3.1 PBM z-score against 500 random probes; and B30, with 3.08 PBM z-score against 500 random probes.
The value for B31 was 3.08 PBM z-score against 500 random probes.
